Source: patent publication US20040077835A1

Tests used:
[1] = molecular target: CCR5 (Homo sapiens (Human)) (UniProt P51681)
[2] = molecular target: CCR5 (Homo sapiens (Human)) (UniProt P51681); remark: listed apart in the source
[3] = molecular target: CCR5 (Homo sapiens (Human)) (UniProt P51681); remark: listed apart in the source

| Mean Relative Potency (IC50 in the envelope-mediated cell fusion assay, relative to AOP-RANTES = 100) (relative to AOP-RANTES = 100) [1] | inhibition of envelope-mediated cell fusion [2] [% inhibition] | Average Infectivity IC50 (cell-free viral infection assay) [3] [nM] | Cell-Fusion Result For Comparison (IC50) [3] [nM] | Substance |
| --- | --- | --- | --- | --- |
| 2 | > 50 | – | – | NNY-P2Thz-Y3Chg-RANTES (4-68) (from UniProt P13501) (ligand) |
| 4 | > 50 | – | – | NNY-P2Thz-Y3tButA-RANTES (4-68) (from UniProt P13501) (ligand) |
| 7 | > 50 | 0.012 | 0.026 | NNY-P-Y3Chg-RANTES (4-68) (from UniProt P13501) (ligand) |
| 7 | > 50 | 0.014 | 0.038 | NNY-P-Y3tbuA-RANTES (4-68) (from UniProt P13501) (ligand) |
